This note sets out measurements from patent publication US20230242592A1, “IDENTIFICATION OF […] PEPTIDES AND USES THEREOF” (priority 2020, published 2023).

Assay [1] addresses RBD-His (Sino Biological) (SARS-CoV-2) (UniProt P0DTC2). Description: BLI (summary of the working examples).
Assay [2] shares this target. Description: BLI steady-state, CR3022 on anti-human IgG Fc tips, RBD-His as analyte.

One may read the Kd as the free concentration of one partner at which half of the binding sites on the other are occupied at equilibrium, for simple one-to-one binding.

In the case of “neutralizing monoclonal IgG antibody against the SARS-CoV-2 spike glycoprotein (CR3022, antibodies-online)”, the Kd in assay [1] was 6 nM; in assay [2] it was 8.6 nM.
